From patent US20100074886A1, “CCR2 ANTAGONISTS FOR TREATMENT OF FIBROSIS” (priority 2006, published 2010)

Biological target: Human MCP-1 (CCL2), monocyte chemoattractant protein 1 (human), P13500
Assay: cell-based or functional assay

Sequence of Human MCP-1 (CCL2), monocyte chemoattractant protein 1 (human), P13500 (P13500 24-99): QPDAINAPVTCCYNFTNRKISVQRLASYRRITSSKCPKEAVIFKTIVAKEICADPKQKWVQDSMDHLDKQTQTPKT

- CCL2 gene expression in fibrotic cell line 126, percent of untreated cell level (percent of untreated cell level): 2
- CXCL5 gene expression in fibrotic cell line 126, percent of untreated cell level (percent of untreated cell level): < 1
- CXCL5 protein level in supernatant of fibrotic cell line 126 with Anti-CCL2: 32
- CXCL5 protein, percent of untreated (percent of untreated): < 1
- G-CSF protein level in supernatant of fibrotic cell line 126 with Anti-CCL2: 1
- G-CSF protein, percent of untreated (percent of untreated): < 1
- IL6 gene expression in fibrotic cell line 126, percent of untreated cell level (percent of untreated cell level): < 1
- IL6 protein level in supernatant of fibrotic cell line 126 with Anti-CCL2: 40
- IL6 protein, percent of untreated (percent of untreated): < 1
- IL8 protein level in supernatant of fibrotic cell line 126 with Anti-CCL2: 308
- IL8 protein, percent of untreated (percent of untreated): 2
- IL13Ra2 gene expression in fibrotic cell line 126, percent of untreated cell level (percent of untreated cell level): 5
- VEGF protein level in supernatant of fibrotic cell line 126 with Anti-CCL2: 175
- VEGF protein, percent of untreated (percent of untreated): 23
- fold reduction of G-CSF protein with CNTO 888: 6800 fold
- fold reduction of VEGF protein with CNTO 888: 4 fold
B1: CCL2-neutralizing antibody CNTO888 (antibody, V domains shown)
VH: QVQLVQSGAEVKKPGSSVKVSCKASGGTFSSYGISWVRQAPGQGLEWMGGIIPIFGTANYAQKFQGRVTITADESTSTAYMELSSLRSEDTAVYYCARYDGIYGELDFWGQGTLVTVSS
VL: not shown
modifications: not checked
